Tests used:
HeLa Kyoto [1] = assay: solubility change mitosis vs G1/S (difference of NP-40 vs SDS log2 ratios) (log2 ratio difference); higher = more soluble in mitosis
HeLa Kyoto [2] = assay: thermal stability score vs G1/S (z-score of summed log2 fold changes over temperatures); higher = more thermally stable than in G1/S
HeLa Kyoto [3] = assay: solubility in G1/S (NP-40 vs SDS abundance) (log2 ratio); higher = more soluble; conditions: cell cycle stage: G1/S
HeLa Kyoto [4] = assay: melting temperature (median over replicates), in situ; higher = more thermally stable
[5] = cell cycle stage: early G1 (4.5 h after nocodazole release)
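For melting temperature (median over replicates), in situ in this document: HeLa Kyoto cells synchronized by double thymidine or nocodazole block, proteins quantified by TMT10plex mass spectrometry, three independent biological replicates.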
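For solubility change mitosis vs G1/S (difference of NP-40 vs SDS log2 ratios) in this document: synchronized HeLa Kyoto cells (double thymidine block for G1/S, nocodazole release for mitosis), protein amounts in NP-40 versus SDS lysates quantified by mass spectrometry, three biological replicates.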
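For solubility in G1/S (NP-40 vs SDS abundance) in this document: HeLa Kyoto cells arrested at G1/S by double thymidine block, proteins quantified by TMT10plex mass spectrometry in mild NP-40 versus SDS extracts, three biological replicates.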
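For thermal stability score vs G1/S (z-score of summed log2 fold changes over temperatures) in this document: synchronized HeLa Kyoto cells, proteins quantified by TMT10plex mass spectrometry, three biological replicates, mitosis taken 0.5 h after nocodazole release, G1/S directly after double thymidine block.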

| Sequence | solubility change mitosis (log2) (HeLa Kyoto [1]) | thermal stability score (HeLa Kyoto [2]; [5]) | thermal stability score (HeLa Kyoto [2]; cell cycle stage: mitosis) | solubility in G1/S (log2) (HeLa Kyoto [3]) | melting temperature (HeLa Kyoto [4]; cell cycle stage: G1/S) | melting temperature (HeLa Kyoto [4]; cell cycle stage: mitosis) |
| --- | --- | --- | --- | --- | --- | --- |
| MAAATGPSFWLGNETLKVPLALFALNRQRLCERLRKNPAVQAGSIVVLQGGEETQRYCTDTGVLFRQESFFHWAFGVTEPGCYGVIDVDTGKSTLFVPRLPASHATWMGKIHSKEHFKEKYAVDDVQYVDEIASVLTSQKPSVLLTLRGVNTDSGSVCREASFDGISKFEVNNTILHPEIVECRVFKTDMELEVLRYTNKISSEAHREVMKAVKVGMKEYELESLFEHYCYSRGGMRHSSYTCICGSGENSAVLHYGHAGAPNDRTIQNGDMCLFDMGGEYYCFASDITCSFPANGKFTADQKAVYEAVLRSSRAVMGAMKPGVWWPDMHRLADRIHLEELAHMGILSGSVDAMVQAHLGAVFMPHGLGHFLGIDVHDVGGYPEGVERIDEPGLRSLRTARHLQPGMVLTVEPGIYFIDHLLDEALADPARASFLNREVLQRFRGFGGVRIEEDVVVTDSGIELLTCVPRTVEEIEACMAGCDKAFTPFSGPK [PEPD] | -0.184 | -1.19 | -2.41 | -0.0689 | 54.1 °C | 53.8 °C |
| MAAAVGRLLRASVARHVSAIPWGISATAALRPAACGRTSLTNLLCSGSSQAKLFSTSSSCHAPAVTQHAPYFKGTAVVNGEFKDLSLDDFKGKYLVLFFYPLDFTFVCPTEIVAFSDKANEFHDVNCEVVAVSVDSHFSHLAWINTPRKNGGLGHMNIALLSDLTKQISRDYGVLLEGSGLALRGLFIIDPNGVIKHLSVNDLPVGRSVEETLRLVKAFQYVETHGEVCPANWTPDSPTIKPSPAASKEYFQKVNQ [PRDX3] | -0.00401 | 0.801 | -1.38 | 0.452 | 58.2 °C | 57.9 °C |
| MAAAVGVRGRYELPPCSGPGWLLSLSALLSVAARGAFATTHWVVTEDGKIQQQVDSPMNLKHPHDLVILMRQEATVNYLKELEKQLVAQKIHIEENEDRDTGLEQRHNKEDPDCIKAKVPLGDLDLYDGTYITLESKDISPEDYIDTESPVPPDPEQPDCTKILELPYSIHAFQHLRGVQERVNLSAPLLPKEDPIFTYLSKRLGRSIDDIGHLIHEGLQKNTSSWVLYNMASFYWRIKNEPYQVVECAMRALHFSSRHNKDIALVNLANVLHRAHFSADAAVVVHAALDDSDFFTSYYTLGNIYAMLGEYNHSVLCYDHALQARPGFEQAIKRKHAVLCQQKLEQKLEAQHRSLQRTLNELKEYQKQHDHYLRQQEILEKHKLIQEEQILRNIIHETQMAKEAQLGNHQICRLVNQQHSLHCQWDQPVRYHRGDIFENVDYVQFGEDSSTSSMMSVNFDVQSNQSDINDSVKSSPVAHSILWIWGRDSDAYRDKQHILWPKRADCTESYPRVPVGGELPTYFLPPENKGLRIHELSSDDYSTEEEAQTPDCSITDFRKSHTLSYLVKELEVRMDLKAKMPDDHARKILLSRINNYTIPEEEIGSFLFHAINKPNAPIWLILNEAGLYWRAVGNSTFAIACLQRALNLAPLQYQDVPLVNLANLLIHYGLHLDATKLLLQALAINSSEPLTFLSLGNAYLALKNISGALEAFRQALKLTTKCPECENSLKLIRCMQFYPFLYNITSSVCSGTVVEESNGSDEMENSDETKMSEEILALVDEFQQAWPLEGFGGALEMKGRRLDLQGIRVLKKGPQDGVARSSCYGDCRSEDDEATEWITFQVKRVKKPKGDHKKTPGKKVETGQIENGHRYQANLEITGPKVASPGPQGKKRDYQRLGWPSPDECLKLRWVELTAIVSTWLAVSSKNIDITEHIDFATPIQQPAMEPLCNGNLPTSMHTLDHLHGVSNRASLHYTGESQLTEVLQNLGKDQYPQQSLEQIGTRIAKVLEKNQTSWVLSSMAALYWRVKGQGKKAIDCLRQALHYAPHQMKDVPLISLANILHNAKLWNDAVIVATMAVEIAPHFAVNHFTLGNVYVAMEEFEKALVWYESTLKLQPEFVPAKNRIQTIQCHLMLKKGRRSP [TTC17] | 0.0442 | 2.32 | 2.24 | 0.107 | 54.8 °C | 56.8 °C |
| MAAAVPQRAWTVEQLRSEQLPKKDIIKFLQEHGSDSFLAEHKLLGNIKNVAKTANKDHLVTAYNHLFETKRFKGTESISKVSEQVKNVKLNEDKPKETKSEETLDEGPPKYTKSVLKKGDKTNFPKKGDVVHCWYTGTLQDGTVFDTNIQTSAKKKKNAKPLSFKVGVGKVIRGWDEALLTMSKGEKARLEIEPEWAYGKKGQPDAKIPPNAKLTFEVELVDID [FKBP3] | 0.226 | 0.0401 | -2.71 | 0.57 | 54.2 °C | 54.4 °C |
| MAAAVSSVVRRVEELGDLAQAHIQQLSEAAGEDDHFLIRASAALEKLKLLCGEEKECSNPSNLLELYTQAILDMTYFEENKLVDEDFPEDSSSQKVKELISFLSEPEILVKENNMHPKHCNLLGDELLECLSWRRGALLYMYCHSLTKRREWLLRKSSLLKKYLLDGISYLLQMLNYRCPIQLNEGVSFQDLDTAKLLSAGIFSDIHLLAMMYSGEMCYWGSKYCADQQPENHEVDTSVSGAGCTTYKEPLDFREVGEKILKKYVSVCEGPLKEQEWNTTNAKQILNFFHHRCN [C5ORF51] | -0.0335 | 0.411 | 1.04 | 0.302 | 49.5 °C | 49.9 °C |
